B1: TFE3 (parent)
chain: FPSDHLGDLGDPFHLGLEDILMEE

Variants of: B1
Experiment: protein stability index of a GFP-peptide fusion (GPS, HEK-293T) (PSI 1-6); higher = more stable
Settings: c terminus: a fixed tail appended
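Further: lentivirally expressed fusions sorted by FACS into six bins by GFP to DsRed ratio, PSI derived from sequencing read proportions per bin multiplied by bin number.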

Protein stability index, by site and new letter:
H5: R 3.52; F 3.28; E 4.15; I 3.08; D 4.42; P 3.68; C 3.73; T 3.88; Q 3.85; S 3.81; A 4.06; N 3.87; W 1.35; M 3.33; G 3.36; K 2.83; V 3.87; L 3.3; Y 3.18
I20: A 3.28
H14: M 3.74; P 4.66; W 2.27; N 3.67; C 2.66; R 3.52; G 4.14; S 4.25; K 3.7; D 4.61; L 3.38; Q 4.09; A 4; T 3.64; Y 3.32; E 4.36; I 3.44; F 3.09; V 3.04
L17: W 3.19; Y 3.46; Q 3.55; A 3.92; M 2.91; D 4.5; I 3.22; G 3.7; V 3.09; T 3.47; H 4.29; N 4.21; P 3.67; F 3.1; C 3.5; E 4.11; S 3.86; K 3.53; R 3.55
P2: W 2.04; T 2.74; V 1.5; L 3.37; R 3.52; M 3.25; N 4.24; Q 2.63; S 3.96; Y 3
G7: D 4.3; R 3.36; M 3.29; V 3.77; E 3.92; K 3.07; A 3.94; Q 3.67; S 3.73; P 4.3; F 2.69; Y 3.22; H 3.11; C 2.89; L 3.41; I 3.12; W 2.73; T 3.3; N 3.43
D4: V 2.59; P 3.11; T 2.35; Q 3.03; W 1.7; L 2.37; G 2.49; A 2.26; S 2.51; H 1.91; M 2.77; R 2.04; I 2.76; E 3.77; C 2.33; F 2.75; N 3.22; K 1.87; Y 2.75
D8: F 2.52; H 2.73; C 2.88; I 3.03; V 3.1; M 2.96; L 2.33; G 3.09; S 3.19; P 3.31; A 2.96; E 3.73; N 3.28; R 2.15; W 1.98; Y 2.14; T 2.36; Q 3.07; K 2.42
L9: V 3.48; Y 3.29; H 3.66; Q 3.64; K 3.94; P 3.42; T 3.79; F 3.45; D 4.5; I 3.54; W 2.19; M 3.74; N 4.32; A 3.63; R 3.66; G 3.54; E 4; C 3.5; S 3.69
E18: W 2.65; C 2.18; A 2.7; F 1.91; I 2.01; T 2.72; D 3.87; L 1.98; N 3.12; V 3.22; Q 2.89; P 3.07; H 2.72; Y 2.1; S 3.51; K 2.85; M 2.62; G 2.86; R 2.28
P12: W 2.71; V 3.5; D 4.35; K 4.02; Q 4.29; T 4.24; G 4.1; R 4.1; C 3.62; Y 3.4; N 4.3; F 4.01; A 3.11; L 2.81; S 4.84; H 3.98; I 3.23; M 3.46; E 4.15
G10: Q 3.05; H 2.95; K 3.14; R 3.3; Y 2.21; L 3.05; A 3.41; I 3.04; C 2.93; P 3.47; N 2.97; D 3.37; F 2.54; V 3.63; M 3.33; W 2.76; S 3.15; E 3.67; T 3.46
L15: I 3.05; M 3.35; Y 3.56; V 3.24; H 3.93; T 3.85; Q 3.87; G 3.63; E 4.21; P 3.7; D 4.45; A 4.29; W 3.49; R 3.61; N 3.77; S 3.67; C 3.31; F 3.36; K 3.1
D19: F 2.09; A 2.1; T 2.58; M 2.28; P 3.31; V 1.97; S 2.69; W 2.16; H 3.29; Y 1.91; I 2.92; G 3.46; R 2.77; N 3.06; E 3.2; Q 2.83; C 2.91; K 3.29; L 2.03
L6: F 3.16; H 3.98; R 2.98; Q 3.6; E 3.96; M 3.71; C 3.42; D 4.09; W 1.75; G 3.64; I 3.37; V 3.81; N 3.85; A 3.69; Y 2.78; K 3.22; P 3.57; T 3.79; S 3.35
F13: P 4.91; V 4.89; D 5.22; L 4.25; K 4.89; E 5.21; Y 2.82; I 4.34; M 4.7; R 4.74; H 5.09; S 4.87; Q 4.61; W 1.76; N 4.97; T 4.93; A 4.62; C 4.62; G 4.97
G16: L 2.4; R 2.7; Y 2.68; V 2.67; S 3.26; C 2.7; I 2.31; P 3.35; E 3.96; N 3.34; M 3.51; D 3.59; W 1.85; F 2.16; T 3.1; K 3.3; H 3.25; A 3.58; Q 3.6
D11: F 2.66; G 3.52; T 2.92; R 3.72; E 4.24; S 2.13; V 3.32; P 3.87; W 1.89; I 3.23; C 2.74; Q 4.41; H 2.27; Y 2.67; K 3.42; N 2.12; M 3.08; A 3.23; L 2.89
S3: A 2.85; R 2.6; H 2.91; D 4.07; Q 3.57; C 2.46; Y 2.45; V 2.56; K 2.67; P 3.79; W 2.2; M 2.59; L 3.04; I 3.02; E 3.97; N 3.16; T 2.9; F 2.29; G 2.97

Source: the supplement of paper PMC10567573
